Assay results as given in patent US20230000916A1 (University of Pennsylvania, published 2023).

Target: T1, F12Q CAR
T1 construct: also called F12Qz CAR; F12Q chimeric receptor
Assay: flow cytometry; K562.64.86.F12Qz cells stained with soluble biotinylated CD3 epsilon, then streptavidin-PE

- binding result: binds
B1: Biotinylated Human CD3 epsilon Protein (AcroBiosystems Cat #CDE-H82E1) (other, UniProt P07766 23-126, looked up)
chain: DGNEEMGGITQTPYKVSISGTTVILTCPQYPGSEILWQHNDKNIGGDEDDKNIGSDEDHLSLKEFSELEQSGYYVCYPRGSKPEDANFYLYLRARVCENCMEMD
modifications: biotinylated
notes: Bought reagent; also called soluble CD3-epsilon protein; soluble, biotinylated CD3ε protein
